Laboratory results published in article PMC12196928, “Site-Directed Mutagenesis Mediated by Molecular Modeling and Docking and Its Effect on the Protein–Protein Interactions of the bHLH Transcription Factors SPATULA, HECATE1, and INDEHISCENT” (Plants, 2025).
Residue numbers refer to the chain shown, from its start. In names and notes the source's numbering stands.

T1: VN:SPT-4A (SPATULA V176A-V177A-D178A-E179A fused to the N-terminal fragment of Venus YFP) (Arabidopsis thaliana, UniProt Q9FUA4 1-373, V176A | V177A | D178A | E179A)
T1 construct: SPATULA (SPT), Arabidopsis thaliana, AT4G36930; source: Arabidopsis Col-0 mesophyll protoplasts, transfected (PEG-Ca), in cells; not shown: Venus YFP N-terminal fragment (residues 1-154)
T1 sequence (looked up): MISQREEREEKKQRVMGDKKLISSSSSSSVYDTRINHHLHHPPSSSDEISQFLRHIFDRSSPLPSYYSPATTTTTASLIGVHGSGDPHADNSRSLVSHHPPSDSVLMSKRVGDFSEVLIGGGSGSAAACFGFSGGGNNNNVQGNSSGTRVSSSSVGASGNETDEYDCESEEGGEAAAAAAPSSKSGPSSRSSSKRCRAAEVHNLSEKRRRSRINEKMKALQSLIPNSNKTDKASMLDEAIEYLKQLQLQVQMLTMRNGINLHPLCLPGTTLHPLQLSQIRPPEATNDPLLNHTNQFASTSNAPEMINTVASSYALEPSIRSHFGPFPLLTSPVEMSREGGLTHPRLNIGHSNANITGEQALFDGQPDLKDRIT

T2: VN:SPT (SPATULA fused to the N-terminal fragment of Venus YFP) (Arabidopsis thaliana, UniProt Q9FUA4 1-373)
T2 construct: SPATULA (SPT), bHLH transcription factor of Arabidopsis thaliana, AT4G36930; source: Arabidopsis Col-0 mesophyll protoplasts, transfected (PEG-Ca), in cells; not shown: Venus YFP N-terminal fragment (residues 1-154)
T2 sequence (looked up): T1 sequence (looked up) with A176V, A177V, A178D, A179E

B1: VC:IND (INDEHISCENT fused to the C-terminal fragment of Venus YFP) (natural protein, Arabidopsis thaliana, UniProt O81313 1-198, looked up)
chain: MENGMYKKKGVCDSCVSSKSRSNHSPKRSMMEPQPHHLLMDWNKANDLLTQEHAAFLNDPHHLMLDPPPETLIHLDEDEEYDEDMDAMKEMQYMIAVMQPVDIDPATVPKPNRRNVRISDDPQTVVARRRRERISEKIRILKRIVPGGAKMDTASMLDEAIRYTKFLKRQVRILQPHSQIGAPMANPSYLCYYHNSQP
notes: INDEHISCENT (IND), bHLH transcription factor of Arabidopsis thaliana, AT4G00120; source: Arabidopsis Col-0 mesophyll protoplasts, transfected (PEG-Ca), in cells; not shown: Venus YFP C-terminal fragment (residues 155-238)
B2: VC:IND-3A (INDEHISCENT N112A-R113A-R114A fused to the C-terminal fragment of Venus YFP) (natural protein, Arabidopsis thaliana, UniProt O81313 1-198, looked up)
chain: B1 chain with N112A, R113A, R114A
notes: INDEHISCENT (IND), Arabidopsis thaliana, AT4G00120; the methods list only VC:IND-3A; source: Arabidopsis Col-0 mesophyll protoplasts, transfected (PEG-Ca), in cells; not shown: Venus YFP C-terminal fragment (residues 155-238)
B3: VC:HEC1 (HECATE1 fused to the C-terminal fragment of Venus YFP) (natural protein, Arabidopsis thaliana, UniProt Q9FHA7 1-241, looked up)
chain: MDSDIMNMMMHQMEKLPEFCNPNSSFFSPDHNNTYPFLFNSTHYQSDHSMTNEPGFRYGSGLLTNPSSISPNTAYSSVFLDKRNNSNNNNNGTNMAAMREMIFRIAVMQPIHIDPEAVKPPKRRNVRISKDPQSVAARHRRERISERIRILQRLVPGGTKMDTASMLDEAIHYVKFLKKQVQSLEEQAVVTGGGGGGGGRVLIGGGGMTAASGGGGGGGVVMKGCGTVGTHQMVGNAQILR
notes: HECATE1 (HEC1), bHLH transcription factor of Arabidopsis thaliana, AT5G67060; source: Arabidopsis Col-0 mesophyll protoplasts, transfected (PEG-Ca), in cells; not shown: Venus YFP C-terminal fragment (residues 155-238)

Assays:
VN:SPT-4A (SPATULA …) = target: T1, VN:SPT-4A (SPATULA …); assay: split reporter (BiFC, NanoBiT); BiFC with split Venus YFP (VN 1-154, VC 155-238) in Arabidopsis Col-0 mesophyll protoplasts, PEG-Ca transfection, 35S promoter, read 16 h after transfection by confocal microscopy; frequency = YFP-positive protoplasts/total protoplasts x 100, four images of about 200 protoplasts each; settings: partners not purified
[1] = target: T2, VN:SPT (SPATULA fused to the N-terminal …); assay: as above; settings: partners not purified

| Binder | average interaction frequency (percent of protoplasts with YFP signal) (VN:SPT-4A (SPATULA …)) [%] | average interaction frequency (percent of protoplasts with YFP signal) [1] [%] |
| --- | --- | --- |
| B1 | 13.5 |  |
| B2 | 14.9 | 13 |
| B3 |  | 34.2 |
